The values that follow come from publication PMC12452654.

The target in test [1] is HtpG from Synechococcus elongatus PCC 7942 (Synechococcus elongatus PCC 7942). Description: SEC; Superdex 200 16/60, 40 mM HEPES-KOH pH 7.5, 150 mM KCl, 0.5 mM TCEP, 0.5 mL/min; peak at 65 mL, close to the 158 kDa IgG standard. (In gel filtration, larger molecules generally elute earlier.)
The target is the same in test [2]. Description: AUC; sedimentation velocity, 45,000 rpm, 20 °C, 4 µM seHtpG, 40 mM HEPES-KOH pH 7.5, 150 mM KCl, 1 mM β-mercaptoethanol, absorbance at 280 nm.

As a reminder, the stoichiometry N is the number of molecules, sites or subunits per partner or assembly.

With “HtpG from Synechococcus elongatus PCC 7942 (natural protein)”, the stoichiometry N in test [1] and in test [2] was 2 each time.
